Measured values reported in patent publication US20140023585A1, “177 LUTETIUM-LABELED BOMBESIN ANALOGS FOR RADIOTHERAPY” (UNIVERSITATSSPITAL BASEL, priority 2010, published 2014).

Assay: in vivo
Details: male, NMRI nu/nu, mouse, iv, total radioactivity; for tissue uptake at 1 h: 1.0 h p.a.; for tissue uptake at 4 h: 4.0 h p.a.; for tissue uptake at 24 h: 24.0 h p.a.; for tissue uptake at 48 h: 48.0 h p.a.; for tissue uptake at 72 h: 72.0 h p.a.
Description: Biodistribution was investigated in NMRI nude mice bearing subcutaneous PC-3 tumors in the right hind limb at different time-points. Body weight of the male mice was approx. 30 g, 3 animals were investigated per time-point. After injecting an intravenous dose into the tail vein, mice were sacrificed at indicated time points and dissected organs were analyzed by radioactive counting. An administration dose of 100 μL was applied per animal with a mean activity of 86 kBq.
At indicated time points urine and feces were quantitatively collected. At the same time points, animals were sacrificed and exsanguinations under isoflurane anesthesia and the following organs and tissues were removed for measurement of [^177Lu] using the gamma-counter: spleen, liver, gallbladder, kidneys, lung, femur, heart, brain, fat, thyroid, muscle, skin, blood, tail, stomach (without content), prostate, intestine (with content), pancreas, adrenals, and the remaining body (designated as carcass).
Whole organs and tissues or aliquots were weighted and measured in a gamma-counter for radioactivity. In order to get the amount of total radioactivity administered in each animal (=100%) 3 aliquots (100 μL each) of the injected solution were always measured in parallel. The results of the biodistribution and excretion are reported as percent of injected dose per gram of tissue (% ID/g) and percent of injected dose per organ (% ID), respectively. All data are given as mean value±standard deviation, which were calculated by using all animals per time and sample.

[1] = pancreas, 86 kBq per animal, % ID/g Pancreas
[2] = stomach (without content), 86 kBq per animal, % ID/g Stomach
[3] = stomach (without content), 86 kBq
[4] = tail, 86 kBq per animal, % ID/g Tail

Structure (SMILES): CC(C)C[C@H](NC(=O)C[C@H](O)[C@H](CC(C)C)NC(=O)[C@H](Cc1c[nH]cn1)NC(=O)CNC(=O)[C@@H](NC(=O)[C@H](C)NC(=O)[C@H](Cc1c[nH]c2ccccc12)NC(=O)[C@H](CCC(N)=O)NC(=O)[C@@H](Cc1ccccc1)NC(=O)CN1CCC(NC(=O)CN2CCN(CC(=O)O)CCN(CC(=O)O)CCN(CC(=O)O)CC2)CC1)C(C)C)C(N)=O [compound 2, [^177Lu]-DOTA-4-amino-1-carboxymethylpiperidine-D-Phe-Gln-Trp-Ala-Val-Gly-His-Sta-Leu-NH2, metal not drawn]
- tissue uptake dose at 24 h (lung, 86 kBq per animal): 0.005 %ID
- tissue uptake dose at 48 h (lung, 86 kBq per animal): 0.013 %ID
- tissue uptake at 1 h (lung, 86 kBq, % ID/g Lung): 0.364 %ID/g
- tissue uptake at 4 h (lung, 86 kBq, % ID/g Lung): 0.083 %ID/g
- tissue uptake at 24 h (lung, 86 kBq, % ID/g Lung): 0.019 %ID/g
- tissue uptake at 48 h (lung, 86 kBq, % ID/g Lung): 0.048 %ID/g
- tissue uptake dose at 1 h (muscle, 86 kBq per animal): 0.014 %ID
- tissue uptake dose at 4 h (muscle, 86 kBq per animal): 0.003 %ID
- tissue uptake at 1 h (muscle, 86 kBq, % ID/g Muscle): 0.072 %ID/g
- tissue uptake at 4 h (muscle, 86 kBq, % ID/g Muscle): 0.02 %ID/g
- tissue uptake dose at 1 h (organs (sum), 86 kBq): 20.1 %ID
- tissue uptake dose at 4 h (organs (sum), 86 kBq): 9.64 %ID
- tissue uptake dose at 24 h (organs (sum), 86 kBq): 3.64 %ID
- tissue uptake dose at 48 h (organs (sum), 86 kBq): 2.09 %ID
- tissue uptake dose at 72 h (organs (sum), 86 kBq): 1.37 %ID
- tissue uptake at 1 h [1]: 18.7 %ID/g
- tissue uptake at 4 h [1]: 5.17 %ID/g
- tissue uptake at 24 h [1]: 0.579 %ID/g
- tissue uptake at 48 h [1]: 0.288 %ID/g
- tissue uptake at 72 h [1]: 0.206 %ID/g
- tissue uptake dose at 1 h (pancreas, 86 kBq): 8.03 %ID
- tissue uptake dose at 4 h (pancreas, 86 kBq): 1.74 %ID
- tissue uptake dose at 24 h (pancreas, 86 kBq): 0.196 %ID
- tissue uptake dose at 48 h (pancreas, 86 kBq): 0.076 %ID
- tissue uptake dose at 72 h (pancreas, 86 kBq): 0.046 %ID
- tissue uptake at 1 h (prostate, 86 kBq per animal, % ID/g Prostate): 0.289 %ID/g
- tissue uptake dose at 1 h (prostate, 86 kBq): 0.003 %ID
- tissue uptake dose at 1 h (skin, 86 kBq per animal): 1.81 %ID
- tissue uptake dose at 4 h (skin, 86 kBq per animal): 0.515 %ID
- tissue uptake dose at 24 h (skin, 86 kBq per animal): 0.162 %ID
- tissue uptake dose at 48 h (skin, 86 kBq per animal): 0.246 %ID
- tissue uptake dose at 72 h (skin, 86 kBq per animal): 0.152 %ID
- tissue uptake at 72 h (skin, 86 kBq per animal, % ID/g Skin): 0.04 %ID/g
- tissue uptake at 1 h (skin, 86 kBq, % ID/g Skin): 0.409 %ID/g
- tissue uptake at 4 h (skin, 86 kBq, % ID/g Skin): 0.145 %ID/g
- tissue uptake at 24 h (skin, 86 kBq, % ID/g Skin): 0.055 %ID/g
- tissue uptake at 48 h (skin, 86 kBq, % ID/g Skin): 0.074 %ID/g
- tissue uptake dose at 1 h (spleen, 86 kBq per animal): 0.034 %ID
- tissue uptake dose at 4 h (spleen, 86 kBq per animal): 0.015 %ID
- tissue uptake dose at 24 h (spleen, 86 kBq per animal): 0.005 %ID
- tissue uptake dose at 48 h (spleen, 86 kBq per animal): 0.003 %ID
- tissue uptake at 1 h (spleen, 86 kBq, % ID/g Spleen): 0.284 %ID/g
- tissue uptake at 4 h (spleen, 86 kBq, % ID/g Spleen): 0.152 %ID/g
- tissue uptake at 24 h (spleen, 86 kBq, % ID/g Spleen): 0.06 %ID/g
- tissue uptake at 48 h (spleen, 86 kBq, % ID/g Spleen): 0.056 %ID/g
- tissue uptake at 1 h [2]: 2.56 %ID/g
- tissue uptake at 4 h [2]: 1.36 %ID/g
- tissue uptake at 24 h [2]: 0.081 %ID/g
- tissue uptake at 48 h [2]: 0.042 %ID/g
- tissue uptake at 72 h [2]: 0.02 %ID/g
- tissue uptake dose at 1 h [3]: 0.614 %ID
- tissue uptake dose at 4 h [3]: 0.321 %ID
- tissue uptake dose at 24 h [3]: 0.018 %ID
- tissue uptake dose at 48 h [3]: 0.01 %ID
- tissue uptake dose at 72 h [3]: 0.005 %ID
- tissue uptake dose at 1 h (tail, 86 kBq per animal): 1.84 %ID
- tissue uptake dose at 4 h (tail, 86 kBq per animal): 0.694 %ID
- tissue uptake dose at 24 h (tail, 86 kBq per animal): 0.337 %ID
- tissue uptake dose at 48 h (tail, 86 kBq per animal): 0.15 %ID
- tissue uptake at 1 h [4]: 2.23 %ID/g
- tissue uptake at 4 h [4]: 0.953 %ID/g
- tissue uptake at 24 h [4]: 0.436 %ID/g
- tissue uptake at 48 h [4]: 0.194 %ID/g
- tissue uptake at 72 h [4]: 0.313 %ID/g
- tissue uptake dose at 72 h (tail, 86 kBq): 0.263 %ID
- tissue uptake dose at 1 h (thyroid, 86 kBq per animal): 0.006 %ID
- tissue uptake at 1 h (thyroid, 86 kBq, % ID/g Thyroid): 0.185 %ID/g
- tissue uptake dose at 1 h (tumor, 86 kBq per animal): 1.12 %ID
- tissue uptake dose at 4 h (tumor, 86 kBq per animal): 3.07 %ID
- tissue uptake dose at 24 h (tumor, 86 kBq per animal): 2.19 %ID
- tissue uptake dose at 48 h (tumor, 86 kBq per animal): 1.05 %ID
- tissue uptake dose at 72 h (tumor, 86 kBq per animal): 0.55 %ID
- tissue uptake at 1 h (tumor, 86 kBq, % ID/g Tumor): 5.6 %ID/g
- tissue uptake at 4 h (tumor, 86 kBq, % ID/g Tumor): 8.1 %ID/g
- tissue uptake at 24 h (tumor, 86 kBq, % ID/g Tumor): 6.06 %ID/g
- tissue uptake at 48 h (tumor, 86 kBq, % ID/g Tumor): 3.58 %ID/g
- tissue uptake at 72 h (tumor, 86 kBq, % ID/g Tumor): 2.49 %ID/g
- dose excreted at 1 h (urine, 86 kBq): 71.8%
- dose excreted at 4 h (urine, 86 kBq): 63.1%
- dose excreted at 24 h (urine, 86 kBq): 76.3%
- dose excreted at 48 h (urine, 86 kBq): 74%
- dose excreted at 72 h (urine, 86 kBq): 63.7%
